Patent US11618906B2, “Hydroxylation techniques” (HYPHA DISCOVERY LTD., priority 2018, dated 2023)

Experiments:
Format in all cases: biochemical
[1] = Metabolism of celecoxib by P450 aluC09 and mutants; conditions: percent of substrate being converted; 0.125 mg/ml, 27° C., 16-20 hours; [CYP] per enzyme as in Table 8
Summary of the method: (§1)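 Lyophilised P450 aluC09 mutants with ferredoxin aluF03 and ferredoxin reductase SCF15A were incubated with 0.125 mg/ml substrate in 50 mM potassium phosphate pH 7.4, 5 mM MgCl2, at 27° C. NADPH was regenerated by 5 mM G6P, 1 mM NADP and 2 UN/ml G6PDH. Conversion was measured by UPLC-MS after 16-20 hours.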

[2] = Metabolism of tofacitinib by P450 aluC09 and mutants; conditions: percent of substrate being converted; 0.125 mg/ml, 27° C., 16-20 hours; [CYP] per enzyme as in Table 8
Summary of the method: as §1

[3] = Metabolism of ritonavir by P450 aluC09 and mutants; conditions: percent of substrate being converted; 0.125 mg/ml, 27° C., 16-20 hours; [CYP] per enzyme as in Table 8
Summary of the method: as §1

[4] = Hydroxylation of flufenamic acid catalysed by cytochrome P450 aluC09 and mutants
Summary of the method: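 Conversion measured by UPLC-MS (UV and MS) after acetonitrile extraction, following 16-20 h shaking at 27° C. Reaction: 0.125 mg/ml substrate, P450 mutant plus ferredoxin aluF03 and reductase SCF15A, 5 mM G6P, 1 mM NADP, 2 U/ml G6PDH, pH 7.4 phosphate with 5 mM MgCl2.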

[5] = Metabolism of tivantinib by P450 aluC09 and mutants; conditions: percent of substrate being converted; 0.125 mg/ml, 27° C., 16-20 hours; [CYP] per enzyme as in Table 8
Summary of the method: as §1

[6] = Metabolism of buparvaquone by P450 aluC09 and mutants; conditions: percent of substrate being converted; 0.125 mg/ml, 27° C., 16-20 hours; [CYP] per enzyme as in Table 8
Procedure: Lyophilised material of mutants of CYP450aluC09, ferredoxinaluF03 and ferredoxin reductaseSCF15A was made as described in examples 3 and 4 and suspended in water (0.5 mL per vial) and biocatalysis was performed at 27° C. in the following conditions: 50 mM potassium phosphate pH 7.4, 5 mM MgCl2, 0.125 mg/ml substrate compound such as diclofenac (Sigma-Aldrich, UK), Aceclofenac (Tokyo Chemical Industry UK Ltd, UK), Indomethacin (Sigma-Aldrich, UK), Flufenamic acid (Sigma-Aldrich, UK), Napropamide (Sigma-Aldrich, UK), celecoxib (LC Laboratories, USA), valsartan (Tokyo Chemical Industry UK Ltd, UK), ruxolitinib (LC Laboratories, USA), 4-pyrrolidylacetophenone (Sigma-Aldrich, UK), tofacitinib (LC Laboratories, USA), bosentan (CarboSynth Ltd, UK), buparvaquone (MedChemtronica, Sweden), BIRB796 (Stratech Scientific Limited, UK), epothilone B (LC Laboratories, USA), ritonavir (Tokyo Chemical Industry UK Ltd, UK) or tivantinib (MedChemtronica, Sweden), P450AluC09 (concentration as in Table 8), 5 mM G6P, 1 mM NADP, 2 UN/ml G6PDH in a final volume of 100 μL. After 16-20 hours at 200 rpm (5 cm orbital shaker, Kuhner AG, Switzerland), reactions were extracted with an equal volume of acetonitrile, centrifuged to remove precipitated proteins and conversion assessed by UPLC-MS analysis.
However, of particular note when considering P450 concentration are the results for mutants M12, M20 and M34, as well as the deleterious impact on the range of substrate utility in mutants M39 and M40.

[7] = Metabolism of epothilone B by P450 aluC09 and mutants; conditions: percent of substrate being converted; 0.125 mg/ml, 27° C., 16-20 hours; [CYP] per enzyme as in Table 8
Summary of the method: as §1

[8] = O-demethylation of indomethacin catalysed by cytochrome P450 aluC09 and mutants; conditions: % by UV peak area at 275 nm; 0.125 mg/ml substrate, 27° C., 16-20 hours
Summary of the method: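 Conversion was quantified by UPLC-UV/MS after acetonitrile extraction of 16-20 h, 27° C. shaken reactions. These contained 0.125 mg/ml substrate, mutant P450 with partner ferredoxin and reductase, 1 mM NADP plus 5 mM G6P and 2 U/ml G6PDH, in pH 7.4 phosphate with 5 mM MgCl2.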

[9] = Hydroxylation / de-N-ethylation of napropamide catalysed by cytochrome P450 aluC09 and mutants
Summary of the method: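 Conversion of napropamide (0.125 mg/ml) to hydroxylated and de-ethylated metabolites was measured by UPLC-MS after acetonitrile extraction. Reactions ran 16-20 h at 27° C in pH 7.4 potassium phosphate (50 mM) with 5 mM MgCl2, 1 mM NADP, 5 mM G6P and 2 UN/ml G6PDH. Enzymes were lyophilised P450 aluC09 variants, ferredoxin aluF03 and ferredoxin reductase SCF15A.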

[10] = Metabolism of bosentan by P450 aluC09 and mutants; conditions: percent of substrate being converted; 0.125 mg/ml, 27° C., 16-20 hours; [CYP] per enzyme as in Table 8
Summary of the method: as §1

[11] = Metabolism of valsartan by P450 aluC09 and mutants; conditions: percent of substrate being converted; 0.125 mg/ml, 27° C., 16-20 hours; [CYP] per enzyme as in Table 8
Summary of the method: as §1

[12] = Hydroxylation of aceclofenac catalysed by cytochrome P450 aluC09 and mutants
Summary of the method: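 Conversion was assessed by UPLC-MS (UV and MS detection) after acetonitrile extraction of reactions run 16-20 h at 27° C, shaking. Reactions contained substrate at 0.125 mg/ml, P450 mutant plus ferredoxin and reductase partners, 1 mM NADP with glucose-6-phosphate regeneration, in phosphate buffer pH 7.4.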

[13] = Metabolism of 4-pyrrolidylacetophenone by P450 aluC09 and mutants; conditions: percent of substrate being converted; 0.125 mg/ml, 27° C., 16-20 hours; [CYP] per enzyme as in Table 8
Summary of the method: as §1

[14] = Hydroxylation of diclofenac catalysed by cytochrome P450 aluC09 and mutants (UPLC-PDA-MS)
Summary of the method: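 Conversion of diclofenac (0.125 mg/ml) to hydroxy metabolites measured by UPLC with UV and MS detection, identities confirmed by authentic samples. Reactions used P450 aluC09 variants with ferredoxin aluF03, reductase SCF15A and an NADP/G6P/G6PDH recycling system, pH 7.4 phosphate, 27° C, 16-20 hours.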

[15] = Metabolism of BIRB796 by P450 aluC09 and mutants; conditions: percent of substrate being converted; 0.125 mg/ml, 27° C., 16-20 hours; [CYP] per enzyme as in Table 8
Summary of the method: as §1

[16] = Metabolism of ruxolitinib by P450 aluC09 and mutants; conditions: percent of substrate being converted; 0.125 mg/ml, 27° C., 16-20 hours; [CYP] per enzyme as in Table 8
Summary of the method: as §1

[17] = % by UV peak area at 275 nm, 0.125 mg/ml substrate, 27° C., 16-20 hours

B1: aluC09M39: cytochrome P450 aluC09 mutant T291K; amino acid sequence SEQ ID NO: 68 (protein, listed as Amycolatopsis lurida)
chain: MTDVEETTATLPLARKCPFSPPPEYERLRRESPVSRVGLPSGQTAWALTRLEDIREMLSSPHFSSDRQSPSFPLMVARQIRREDKPFRPSLIAMDPPEHSRARRDVVGEFTVKRMKALQPRIQQIVDEHLDALLAGPKPADLVQALSLPVPSLVICELLGVPYSDHEFFQSCSSRMLSREVTAEERMTAFEQLENYLDELVTKKEANATEDDLLGRQILKQRETGEADHGELVGLAFLLLIAGHETTANMISLGTVTLLENPDQLAKIKADPGKTLAAIEELLRVFTIAEKATSRFATADVEIGGTLIRAGEGVVGLSNAGNHDPDGFENPDTFDIERGARHHVAFGFGVHQCLGQNLARLELQIVFDTLFRRVPGLRIAVPVDELPFKHDSTIYGLHALPVTW
[1]
  % conversions (avg) Celecoxib: 0%
[2]
  % conversions (avg) Tofacitinib: 0%
[3]
  % conversions (avg) Ritonavir: 39.2%
[4]; [17]
  Flufenamic Acid (Substrate) 1.93 mins: 94.4%
  Hydroxy-Flufenamic Acid (1) 1.69 mins: 5.1%
  Hydroxy-Flufenamic Acid (2) 1.65 mins: 0.5%
[4]; flufenamic acid, ratio of UV peak areas at 275 nm
  Hydroxylated Ratio 1:2: 4.9
[4]; peak at 1.65 minutes, compared to wild-type
  production of hydroxyl-flufenamic acid 2: no detectable production
[5]
  % conversions (avg) Tivantinib: 7.2%
[6]
  % conversions (avg) Buparvaquone: 0%
[7]
  % conversions (avg) Epothilone B: 1.6%
[8]
  Indomethacin (1.74 mins): 93.0%
  O-demethyl-Indomethacin (1.52 mins): 7.0%
[9]; [17]
  Desethyl Napropamide (1.62 min): 16.3%
  Desethyl-hydroxy-Napropamide (1.41 min): 0.7%
  Hydroxy-Napropamide (1) (1.53 min): 1.4%
  Hydroxy-Napropamide (2), (1.52 min): 1.6%
  M-2Da (unidentified) (1.89 min): 2.3%
  Napropamide (substrate): 78.2%
[9]; napropamide, ratio of UV peak areas
  Hydroxylated Ratio 2:1: 1.2
[10]
  % conversions (avg) Bosentan: 85.1%
[11]
  % conversions (avg) Valsartan: 7.8%
[12]; [17]
  Aceclofenac (Substrate) (1.80 mins): 63.7%
  Dihydroxy-Aceclofenac (1.42 mins): 4.4%
  Hydroxy-Aceclofenac (1) (1.64 min): 18.6%
  Hydroxy-Aceclofenac (2) (1.60 min): 13.3%
[12]; aceclofenac, ratio of UV peak areas at 275 nm
  Hydroxylated Ratio 2:1: 0.7
[13]
  % conversions (avg) 4-pyrrolidylacetophenone: 1.5%
[14]; [17]
  4′,5-dihydroxy-diclofenac 1.38 mins: 2.1%
  4′-hydroxy-diclofenac (1) 1.62 mins: 42.8%
  5-hydroxy-diclofenac (2) 1.58 mins: 14.6%
  Diclofenac (Substrate) 1.81 mins: 41.4%
[14]; diclofenac, ratio of UV peak areas at 275nm
  Hydroxylated Ratio hydroxy 1:hydroxy 2: 2.9
[15]
  % conversions (avg) BIRB796: 0%
[16]
  % conversions (avg) Ruxolitinib: 5.3%
